The assay addresses T1, HLA-A*02:01 (human).
T1 construct: monomers captured on streptavidin plates; also called MHC class I
The assay is described as follows: UV peptide exchange ELISA. The method in brief:
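Read-out is an ELISA on the UV-exchange reaction: monomers, diluted 100-fold, are captured on streptavidin and the β2m light chain is detected with 2 μg/ml HRP antibody and TMB at 450 nm.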
(In general: ELISA stands for enzyme-linked immunosorbent assay.)

Non-standard residues stand in square brackets, D forms with d. No end group written: not given here. pS = N[C@@H](COP(=O)(O)O)C(=O)O A value given as a limit tells only on which side of the number the result lay.

B1: FLTDLEDLTL (peptide)
peptide: FLTDLEDLTL
B1 came in with a peptide exchange yield of 50 to 75%.

B2: VIADGGIQNV (peptide)
peptide: VIADGGIQNV
For B2, the peptide exchange yield was in the range of 20 to 50%.

B3: SLIEKLWQT (peptide)
peptide: SLIEKLWQT
B3: the peptide exchange yield was in the range of 20 to 50%.

B4: YLISQVEGHQV (peptide)
peptide: YLISQVEGHQV
The molecule B4 had a peptide exchange yield of 50 to 75%.

B5: ALAEVAAMENV (peptide)
peptide: ALAEVAAMENV
B5 gave a peptide exchange yield of 50 to 75%.

B6: SLWQDIPDV (peptide)
peptide: SLWQDIPDV
As for B6, the peptide exchange yield was in the range of 50 to 75%.

B7: ILVANAIVGV (peptide)
peptide: ILVANAIVGV
Molecule B7 displayed a peptide exchange yield of 50 to 75%.

B8: VTVPPGPSL (peptide)
peptide: VTVPPGPSL
In turn, B8 registered a peptide exchange yield of 20 to 50%.

B9: AMLENASDIKL (peptide)
peptide: AMLENASDIKL
B9 came in with a peptide exchange yield of 50 to 75%.

B10: NLMEMVAQL (peptide)
peptide: NLMEMVAQL
Molecule B10 yielded a peptide exchange yield of 20 to 50%.

B11: TVTNAVVTV (peptide)
peptide: TVTNAVVTV
B11 had a peptide exchange yield of 50 to 75%.

B12: KLYESLLPFA (peptide)
peptide: KLYESLLPFA
For B12, the peptide exchange yield fell in the range of 50 to 75%.

B13: YVLEGLKSV (peptide)
peptide: YVLEGLKSV
B13 yielded a peptide exchange yield of 50 to 75%.

B14: ALADLIEKELSV (peptide)
peptide: ALADLIEKELSV
Molecule B14 yielded a peptide exchange yield of 50 to 75%.

B15: FLIEPEHVNTV (peptide)
peptide: FLIEPEHVNTV
B15 came in with a peptide exchange yield of 20 to 50%.

B16: VLLSIYPRV (peptide)
peptide: VLLSIYPRV
B16 gave a peptide exchange yield of 50 to 75%.

B17: ALAELYEDEV (peptide)
peptide: ALAELYEDEV
Molecule B17 showed a peptide exchange yield of 50 to 75%.

B18: GLLDLPFRVGV (peptide)
peptide: GLLDLPFRVGV
B18 had a peptide exchange yield not below 75%.

B19: KLKPGDLVGV (peptide)
peptide: KLKPGDLVGV
Molecule B19 had a peptide exchange yield of 50 to 75%.

B20: RLLJAAENFL (peptide)
peptide: RLL[pS]AAENFL
Turning to B20, the peptide exchange yield lay in the range of 50 to 75%.

B21: YLLQEPPRTV (peptide)
peptide: YLLQEPPRTV
With B21, the peptide exchange yield lay in the range of 20 to 50%.

B22: SMAELDIKL (peptide)
peptide: SMAELDIKL
In turn, B22 came in with a peptide exchange yield of 50 to 75%.

B23: GLLPTPITQQASL (peptide)
peptide: GLLPTPITQQASL
The molecule B23 registered a peptide exchange yield of 50 to 75%.

B24: ALWENPESGEL (peptide)
peptide: ALWENPESGEL
Take B24: the peptide exchange yield lay in the range of 20 to 50%.

B25: SLLPLDDIVRV (peptide)
peptide: SLLPLDDIVRV
As for B25, the peptide exchange yield fell in the range of 50 to 75%.

B26: ILLSVPLLVV (peptide)
peptide: ILLSVPLLVV
Regarding B26, the peptide exchange yield is 20 to 50%.

B27: FLDPGGPMMKL (peptide)
peptide: FLDPGGPMMKL
The molecule B27 gave a peptide exchange yield of 50 to 75%.

B28: ILTEENIHL (peptide)
peptide: ILTEENIHL
The molecule B28 came in with a peptide exchange yield of 50 to 75%.

B29: GLLENIPRV (peptide)
peptide: GLLENIPRV
Regarding B29, the peptide exchange yield lay in the range of 50 to 75%.

B30: VMIAGKVAVV (peptide)
peptide: VMIAGKVAVV
With B30, the peptide exchange yield is 50 to 75%.

B31: LLLTTIPQI (peptide)
peptide: LLLTTIPQI
For B31, the peptide exchange yield is 50 to 75%.

B32: YLLNDASLISV (peptide)
peptide: YLLNDASLISV
Molecule B32 showed a peptide exchange yield of 50 to 75%.

B33: FLFPHSVLV (peptide)
peptide: FLFPHSVLV
B33 came in with a peptide exchange yield of 50 to 75%.

B34: SLLPLSHLV (peptide)
peptide: SLLPLSHLV
As to B34, the peptide exchange yield lay within 50 to 75%.

B35: VLSSLEINI (peptide)
peptide: VLSSLEINI
B35 displayed a peptide exchange yield of 20 to 50%.

B36: GLPRFGIEMV (peptide)
peptide: GLPRFGIEMV
In turn, B36 came in with a peptide exchange yield of 50 to 75%.

B37: TLDITPHTV (peptide)
peptide: TLDITPHTV
For the molecule B37, the peptide exchange yield fell in the range of 50 to 75%.

B38: ALWDIETGQQTTT (peptide)
peptide: ALWDIETGQQTTT
For the molecule B38, the peptide exchange yield is 50 to 75%.

B39: ALLDQTKTLAESAL (peptide)
peptide: ALLDQTKTLAESAL
On to B39, for which the peptide exchange yield lay within 50 to 75%.

B40: YLLEQIKLIEV (peptide)
peptide: YLLEQIKLIEV
In the case of B40, the peptide exchange yield was not below 75%.

B41: LLMPSSEDLLL (peptide)
peptide: LLMPSSEDLLL
Consider B41, for which the peptide exchange yield lay within 50 to 75%.

B42: ILLNNSGQIKL (peptide)
peptide: ILLNNSGQIKL
The molecule B42 registered a peptide exchange yield not below 75%.

B43: ILANDGVLLAA (peptide)
peptide: ILANDGVLLAA
B43: the peptide exchange yield lay in the range of 50 to 75%.

B44: TLYDIAHTPGV (peptide)
peptide: TLYDIAHTPGV
The molecule B44 showed a peptide exchange yield not below 75%.

B45: KLYPQLPAEI (peptide)
peptide: KLYPQLPAEI
With B45, the peptide exchange yield was 50 to 75%.

B46: LLMENAERV (peptide)
peptide: LLMENAERV
For the molecule B46, the peptide exchange yield was in the range of 20 to 50%.

B47: SLLNQDLHWSL (peptide)
peptide: SLLNQDLHWSL
Molecule B47 had a peptide exchange yield not below 75%.

B48: KLVDRTWTL (peptide)
peptide: KLVDRTWTL
notes: probably a misprint of W as VV
In the case of B48, the peptide exchange yield lay in the range of 50 to 75%.

B49: TLCDVILMV (peptide)
peptide: TLCDVILMV
As for B49, the peptide exchange yield is 50 to 75%.

B50: IMLKGDNITL (peptide)
peptide: IMLKGDNITL
Molecule B50 returned a peptide exchange yield of 50 to 75%.

B51: ALAAPDIVPAL (peptide)
peptide: ALAAPDIVPAL
B51 displayed a peptide exchange yield of 50 to 75%.

B52: KLLEGQVIQL (peptide)
peptide: KLLEGQVIQL
B52 gave a peptide exchange yield of 50 to 75%.

B53: ALWDLAADKQTL (peptide)
peptide: ALWDLAADKQTL
In turn, B53 showed a peptide exchange yield not below 75%.

B54: LLWDVPAPSL (peptide)
peptide: LLWDVPAPSL
B54 displayed a peptide exchange yield of 50 to 75%.

B55: YLQLTQSEL (peptide)
peptide: YLQLTQSEL
With B55, the peptide exchange yield was 50 to 75%.

B56: KLYDDMIRL (peptide)
peptide: KLYDDMIRL
B56 registered a peptide exchange yield of 50 to 75%.

B57: ILDPISSGFLL (peptide)
peptide: ILDPISSGFLL
The molecule B57 registered a peptide exchange yield of 20 to 50%.

B58: LLADLLHNV (peptide)
peptide: LLADLLHNV
B58 showed a peptide exchange yield of 50 to 75%.

B59: VMNDRLYAI (peptide)
peptide: VMNDRLYAI
Take B59: the peptide exchange yield fell in the range of 50 to 75%.

B60: SAFPFPVTV (peptide)
peptide: SAFPFPVTV
The molecule B60 had a peptide exchange yield of 50 to 75%.

B61: YLEELPEKLKL (peptide)
peptide: YLEELPEKLKL
In the case of B61, the peptide exchange yield is 50 to 75%.

B62: ALANQIPTV (peptide)
peptide: ALANQIPTV
Regarding B62, the peptide exchange yield fell in the range of 20 to 50%.

B63: VMFEDGVLMRL (peptide)
peptide: VMFEDGVLMRL
B63 gave a peptide exchange yield of 50 to 75%.

B64: FLYDEIEAEVNL (peptide)
peptide: FLYDEIEAEVNL
B64 showed a peptide exchange yield of 50 to 75%.

B65: ALQETPTSV (peptide)
peptide: ALQETPTSV
Molecule B65 had a peptide exchange yield of 20 to 50%.

B66: WLLPYNGVTV (peptide)
peptide: WLLPYNGVTV
B66 yielded a peptide exchange yield of 50 to 75%.

These data come from patent US20170037110A1 (IMMATICS BIOTECHNOLOGIES, published 2017).
